This is an account of results in paper PMC9482650, “Quantitative fragmentomics allow affinity mapping of interactomes” (Nature Communications, 2022).

Some targets named below: GRIP2_4, Q9C0E4; PDLIM1, O00151; PTPN3, P26045; MAST2, Q6P0Q8; DLG4_1, P78352; CASK, O14936; ARHGEF12, Q9NZN5-2; FRMPD2_2, Q68DX3; Inadl_4, Q8NI35; MAGI2_6, Q86UL8.
Experiment in all cases: holdup assay
Common to all, as to design: key: below the threshold = too weak to quantify, mostly under pKd 3.1 to 4
Holding throughout (conditions): plain residues with an end cap or a label only (N-terminal biotin on a linker: ado-ado)

For the next test, the target named is T1, MPP2, Q14168.
T1 sequence (Q14168 180-250, limits assumed, looked up): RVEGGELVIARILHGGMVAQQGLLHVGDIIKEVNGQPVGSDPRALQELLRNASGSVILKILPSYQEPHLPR

In another test the target is T2, TX1BP3, O14907.
T2 sequence (O14907 10-122, limits assumed, looked up): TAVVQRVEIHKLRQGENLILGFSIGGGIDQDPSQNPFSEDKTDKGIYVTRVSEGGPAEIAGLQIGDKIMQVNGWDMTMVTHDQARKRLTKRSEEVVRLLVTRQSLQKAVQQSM

In a further test the target is T3, SNTB1, Q13884.
T3 sequence (Q13884 107-205, limits assumed, looked up): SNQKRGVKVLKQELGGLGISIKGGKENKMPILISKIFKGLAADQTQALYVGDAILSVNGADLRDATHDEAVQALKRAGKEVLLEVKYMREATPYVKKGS

Another test deals with T4, ARHGAP21, Q5T5U3.
T4 sequence (Q5T5U3 45-169, limits assumed, looked up): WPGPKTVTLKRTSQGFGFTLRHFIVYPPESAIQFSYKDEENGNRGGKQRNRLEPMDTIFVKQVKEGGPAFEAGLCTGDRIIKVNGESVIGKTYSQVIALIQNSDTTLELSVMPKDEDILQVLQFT

In a further test the target is T5, MPP7, Q5T2T1.
T5 sequence (Q5T2T1 134-230, limits assumed, looked up): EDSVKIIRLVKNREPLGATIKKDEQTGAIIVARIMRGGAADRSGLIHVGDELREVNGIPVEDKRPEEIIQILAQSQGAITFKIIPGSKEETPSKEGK

The target of another test is T6, NHERF3_3, Q5T2W1.
T6 sequence (Q5T2W1 238-333, limits assumed, looked up): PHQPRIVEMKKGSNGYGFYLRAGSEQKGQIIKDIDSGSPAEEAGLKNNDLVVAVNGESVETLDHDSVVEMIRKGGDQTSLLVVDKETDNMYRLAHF

The next test addresses T7, LIN7B, Q9HAP6.
T7 sequence (Q9HAP6 88-185, limits assumed, looked up): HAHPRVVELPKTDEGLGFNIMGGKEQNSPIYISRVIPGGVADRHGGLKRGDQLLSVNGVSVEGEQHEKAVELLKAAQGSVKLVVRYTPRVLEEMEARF

In a further test the target is T8, GRIP1_5, Q9Y3R0.
T8 sequence (Q9Y3R0 568-668, limits assumed, looked up): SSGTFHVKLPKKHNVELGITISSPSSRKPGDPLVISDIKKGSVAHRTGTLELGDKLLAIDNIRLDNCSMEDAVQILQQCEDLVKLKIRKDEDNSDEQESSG

The target of another test is T9, NHERF3_4, Q5T2W1.
T9 sequence (Q5T2W1 373-468, limits assumed, looked up): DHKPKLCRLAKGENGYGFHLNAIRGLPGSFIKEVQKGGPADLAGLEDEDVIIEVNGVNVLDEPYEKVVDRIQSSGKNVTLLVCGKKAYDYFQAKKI

The target of another test is T10, SIPA1L2, Q9P2F8.
T10 sequence (Q9P2F8 945-1036, limits assumed, looked up): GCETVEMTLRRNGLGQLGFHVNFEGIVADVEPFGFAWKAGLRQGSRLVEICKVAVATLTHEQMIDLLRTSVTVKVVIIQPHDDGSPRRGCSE

In the next test the target is T11, PDZD7_3, Q9H5P4.
T11 sequence (Q9H5P4 857-944, limits assumed, looked up): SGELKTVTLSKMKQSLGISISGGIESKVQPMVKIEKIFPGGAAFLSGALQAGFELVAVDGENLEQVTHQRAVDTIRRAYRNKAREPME

For another test, the target named is T12, MPDZ_5, O75970.
T12 sequence (O75970 695-796, limits assumed, looked up): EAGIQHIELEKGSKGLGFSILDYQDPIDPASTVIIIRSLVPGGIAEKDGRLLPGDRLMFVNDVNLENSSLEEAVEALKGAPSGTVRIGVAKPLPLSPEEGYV

The next test concerns the target T13, APBA1_2, Q02410.
T13 sequence (Q02410 742-832, limits assumed, looked up): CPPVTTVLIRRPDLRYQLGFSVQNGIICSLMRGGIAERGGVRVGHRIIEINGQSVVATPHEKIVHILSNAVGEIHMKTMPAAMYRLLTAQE

A further test addresses T14, APBA2_2, Q99767.
T14 sequence (Q99767 654-744, limits assumed, looked up): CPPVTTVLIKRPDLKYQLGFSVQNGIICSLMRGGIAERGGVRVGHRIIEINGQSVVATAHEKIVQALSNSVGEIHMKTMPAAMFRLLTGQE

PTPN3, P26045, sequence (P26045 505-587): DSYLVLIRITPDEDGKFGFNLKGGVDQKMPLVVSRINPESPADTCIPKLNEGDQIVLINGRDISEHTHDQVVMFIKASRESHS
Inadl_4, Q8NI35, sequence (Q8NI35 547-651): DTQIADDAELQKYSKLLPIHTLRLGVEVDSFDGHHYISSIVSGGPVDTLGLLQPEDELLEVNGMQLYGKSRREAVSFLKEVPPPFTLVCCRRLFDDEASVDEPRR
FRMPD2_2, Q68DX3, sequence (Q68DX3 944-1038): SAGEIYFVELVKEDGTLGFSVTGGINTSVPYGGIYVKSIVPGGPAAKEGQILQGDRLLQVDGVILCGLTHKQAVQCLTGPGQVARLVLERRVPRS
PDLIM1, O00151, sequence (O00151 1-87): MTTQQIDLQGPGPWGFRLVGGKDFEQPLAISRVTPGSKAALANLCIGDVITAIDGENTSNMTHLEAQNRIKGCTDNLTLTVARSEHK
MAST2, Q6P0Q8, sequence (Q6P0Q8 1099-1202): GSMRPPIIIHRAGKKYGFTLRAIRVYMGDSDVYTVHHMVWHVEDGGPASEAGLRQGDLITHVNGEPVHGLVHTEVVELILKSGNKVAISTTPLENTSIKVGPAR
MAGI2_6, Q86UL8, sequence (Q86UL8 1141-1229): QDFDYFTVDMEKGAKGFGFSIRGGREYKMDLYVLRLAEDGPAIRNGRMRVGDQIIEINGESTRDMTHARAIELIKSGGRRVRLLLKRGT
CASK, O14936, sequence (O14936 487-570): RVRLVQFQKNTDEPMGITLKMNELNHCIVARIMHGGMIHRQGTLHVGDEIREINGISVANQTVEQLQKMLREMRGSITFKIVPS
DLG4_1, P78352, sequence (P78352 62-152): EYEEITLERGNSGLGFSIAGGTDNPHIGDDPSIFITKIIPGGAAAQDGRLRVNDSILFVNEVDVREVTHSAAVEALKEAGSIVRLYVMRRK
ARHGEF12, Q9NZN5-2, sequence (Q9NZN5 other isoform, or with tags, fused parts or gaps): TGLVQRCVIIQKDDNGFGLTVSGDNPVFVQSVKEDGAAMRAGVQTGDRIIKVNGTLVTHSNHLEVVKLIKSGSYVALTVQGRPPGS
GRIP2_4, Q9C0E4, sequence (Q9C0E4 446-548): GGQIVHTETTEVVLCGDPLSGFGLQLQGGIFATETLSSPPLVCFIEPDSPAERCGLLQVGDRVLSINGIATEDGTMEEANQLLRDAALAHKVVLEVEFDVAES

As usually defined, the pKd is −log10 of the Kd, conventionally taken in molar units. As to NVYGIESVKI [GRIA2, P42262], the negative logarithm of the Kd (pKd) entry with GRIP2_4, Q9C0E4 was “below the threshold”; with PDLIM1, O00151 it was “below the threshold”; in the test with PTPN3, P26045 it was “below the threshold”; with MPP2, Q14168, “below the threshold”; in the test with MAST2, Q6P0Q8 it was 4.35; in the test with TX1BP3, O14907 it was “below the threshold”. Moreover, the pKd with SNTB1, Q13884 was 3.51; with ARHGAP21, Q5T5U3 it was “below the threshold”; in the test with MPP7, Q5T2T1 it was “below the threshold”; with NHERF3_3, Q5T2W1 it was “below the threshold”; in the test with LIN7B, Q9HAP6, 3.74; with GRIP1_5, Q9Y3R0, 3.5. Moreover, the pKd entry in the test with DLG4_1, P78352 is “below the threshold”; in the test with NHERF3_4, Q5T2W1, 3.75; in the test with CASK, O14936 it was “below the threshold”; with SIPA1L2, Q9P2F8, “below the threshold”; in the test with PDZD7_3, Q9H5P4, “below the threshold”; with ARHGEF12, Q9NZN5-2 it was 3.59. Further, the pKd entry was “below the threshold” with MPDZ_5, O75970; 3.68 with APBA1_2, Q02410; 3.6 with APBA2_2, Q99767; “below the threshold” with FRMPD2_2, Q68DX3; “below the threshold” in the test with Inadl_4, Q8NI35; “below the threshold” in the test with MAGI2_6, Q86UL8.
With TISFTQTSQF [SLC1A1, P43005], the negative-log Kd (pKd) entry was “below the threshold” with GRIP2_4, Q9C0E4; “below the threshold” with PDLIM1, O00151; 4.09 in the test with PTPN3, P26045; “below the threshold” with MPP2, Q14168; 4.89 in the test with MAST2, Q6P0Q8; “below the threshold” with TX1BP3, O14907. The pKd entry in the test with SNTB1, Q13884 was “below the threshold”; with ARHGAP21, Q5T5U3, “below the threshold”; with MPP7, Q5T2T1, “below the threshold”; with NHERF3_3, Q5T2W1 it was “below the threshold”; with LIN7B, Q9HAP6, “below the threshold”; with GRIP1_5, Q9Y3R0, “below the threshold”. Also, the pKd entry in the test with DLG4_1, P78352 is “below the threshold”; with NHERF3_4, Q5T2W1 it was 4.41; in the test with CASK, O14936, “below the threshold”; with SIPA1L2, Q9P2F8, “below the threshold”; in the test with PDZD7_3, Q9H5P4, “below the threshold”; with ARHGEF12, Q9NZN5-2 it was 3.79. For the same molecule, the pKd entry with MPDZ_5, O75970 is listed as “below the threshold”; with APBA1_2, Q02410, “below the threshold”; with APBA2_2, Q99767 it was “below the threshold”; with FRMPD2_2, Q68DX3, “below the threshold”; with Inadl_4, Q8NI35, “below the threshold”; in the test with MAGI2_6, Q86UL8 it was “below the threshold”.
Consider PSHPRLQTHV [KIRREL2, Q6UWL6], for which the negative logarithm of the Kd (pKd) entry is “below the threshold” with GRIP2_4, Q9C0E4; “below the threshold” with PDLIM1, O00151; 4.13 with PTPN3, P26045; “below the threshold” with MPP2, Q14168; 5.5 in the test with MAST2, Q6P0Q8; 4.64 with TX1BP3, O14907. Moreover, the pKd in the test with SNTB1, Q13884 was 3.48; with ARHGAP21, Q5T5U3 it was “below the threshold”; with MPP7, Q5T2T1, “below the threshold”; with NHERF3_3, Q5T2W1 it was “below the threshold”; with LIN7B, Q9HAP6 it was “below the threshold”; with GRIP1_5, Q9Y3R0, “below the threshold”. Besides, the pKd with DLG4_1, P78352 is 4.06; in the test with NHERF3_4, Q5T2W1, “below the threshold”; with CASK, O14936, “below the threshold”; in the test with SIPA1L2, Q9P2F8, “below the threshold”; with PDZD7_3, Q9H5P4 it was 4.61; in the test with ARHGEF12, Q9NZN5-2, 4.26. Also, the pKd entry with MPDZ_5, O75970 is “below the threshold”; with APBA1_2, Q02410, 3.74; with APBA2_2, Q99767, “below the threshold”; in the test with FRMPD2_2, Q68DX3, “below the threshold”; with Inadl_4, Q8NI35 it was “below the threshold”; in the test with MAGI2_6, Q86UL8 it was “below the threshold”.
